Results on 4 molecules are retold here after paper PMC3130887 (Nature structural & molecular biology, 2011).

In test [1] the target is ADD_(ATRX) (ATRX fragment 167–289) (human) (UniProt P46100). Briefly: ITC. In general terms: Isothermal titration calorimetry measures the heat released or taken up as one component is titrated into another.
Another test has as its target T1, ADDATRX (Homo sapiens, UniProt P46100, F284Y/K251R).
T1 sequence (P46100 167-289 K251R/F284Y): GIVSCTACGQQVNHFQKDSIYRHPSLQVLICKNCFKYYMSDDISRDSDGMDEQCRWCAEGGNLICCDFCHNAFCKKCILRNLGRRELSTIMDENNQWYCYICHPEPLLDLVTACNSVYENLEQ
It counts as binding. Particulars: wild type ADDATRX; Kd n.d. in Fig. 4b.

For test [2], the target named is ADD_(ATRX) Y203A mutant (purified, for ITC) (human) (UniProt P46100). Put plainly: ITC.
In test [3] the target is unmodified H3 tail (as used in the SPR assay). Put plainly: SPR.

“H3 peptide trimethylated at both Lys4 and Lys9”: in test [1], the dissociation constant (Kd) (as a rule, the free concentration of one partner at which half of the binding sites on the other are occupied at equilibrium, for simple one-to-one binding) worked out at 4.9 µM and the dH is -12 kcal/mol.

As to “H3_5–13K9me3: synthetic H3 peptide, residues 5–13, Lys9 trimethylated (QTARKSTGG; trimethyl-lysine at 9)”, the “binding in ITC titration” value with ADDATRX is reported as “totally lost”. In test [2], “H3_(1–15)K9me3 peptide (from UniProt P68431 2-16)” came in with a dissociation constant (Kd) of 4.6 µM and a dH of -4.7 kcal/mol.

B1: ADD_(ATRX) (as used in the SPR assay) (domain or fragment)
chain: KRGEDGLHGIVSCTACGQQVNHFQKDSIYRHPSLQVLICKNCFKYYMSDDISRDSDGMDEQCRWCAEGGNLICCDFCHNAFCKKCILRNLGRKELSTIMDENNQWYCYICHPEPLLDLVTACNSVFENLEQLLQQNKK
In the case of B1, the Kd in test [3] worked out at 3.2 µM.
